Laboratory results taken from the DeepSol protein solubility set.

Test: soluble on expression in E. coli; label from the status in PepcDB or PDB records

Soluble on expression in E. coli, not soluble:
MISLTQQVSAVRLDTHKSDTFEQNDLVLDNTGAVLSGSRDALIRRLVPTRDFCPDESYIFSLLVNIRTFISPHELMQKIVQYCMFAQNADSHNFAKEGRGRMFAHILRLCSEWATNIPYDFKTEYMRTRLNELLRLCAVDKTYQQKTTELQSTLRSSLNKLDRYEKAVANLQKALSENTNLPEQSDSMTGLFVLCNDAKTVAQQLTHIEMERFSMVGVDEIVQSLASDPLSEIGRHSKNKEGTISSISFYIEWFNRLSAFAAIEVLKQTKKRNRVAVFEFMIDIAKECCEIGNFNSMMAIVAGLSLPAVSRLKKTWCRVEKAKLEILQHQLDPSGNFLSYRATIKAAQWRADSARGNQQKIVIPFFVLLLKDLFLIYHGHPRILPNAHLNFMAFNQLAEQLRDVIQWKSTVCTFEKNPQVLQYLLITSVSGEKDSMLMSFECEPPESSSERDQHKKLKGGK
MISNQILQNTIEGLKGISRIDFCVLDTEGKALATTFEDTWNYESAVLSFVESPADSQVIQGCQFFKIFDEQQLEYVLLAGGESEDVYMLGKIAAFQVQSLLVAYKERFDKDNFIKNLLLDNLLLVDIYNRAKKLHIDTEAKRVIFIIETSHEKDSVALDNVRNLLGGKSRDFVTAVDEKNIIVVKELADKAGSRELEKMAKEMMEILRAESEDDKIHIAYGTVVNDIKEVSKSYKEAKLALDVGKIFFDEKDIVAYSTLGIGRLIYQLPIPLCKMFIKEIFEGKSPDEFDEETLTTINKFFENSLNVSETSRQLYIHRNTLVYRLDKLQKSTGLDLRVFEDAITFKIALMVVKYMKYMETLEY
MISQVRIMDVIKPLGSFIQQDGMPVFGHLSAIPRSLDLESFQYLNEMDNPVSKWRKHFDYKQFQFVSLVTPDYVVGIAIADIRYLASGFCYLFDIKRNALTEQQWLKPCQLGYQTQPSSWLSKAHLANNTIQFSIEEGQWHVQFVTPSVNANITLHPQPQSLPLMLSTPTGYSGWTYTQKHNAMTVTGNLFILGEEQDLSQVAAGYDFSAGYMRRETSWRWASINHKDGDKSLGLNLAAGVNETGFCENVLWVDGERHLLNPVQFQFSRQNPRTDWRITSEDGCVDLVFEPINQRSEKKNFWFLKSNFRQYIGHFSGFVVDGNGSKHELDGVVGLTEDHYAKW
MISVFDIYKIGVGPSSSHTVGPMKAGKEFIDDLRAMGKLRDITKITVDVYGSLSLTGKGHHTDIAIIMGLAGNSPEKVDIDSIPGFIARVEETERLPVGMHCHTVSFPREGGMNFHKTNLELHENGMQIHAWIDDEKVYSKTYYSIGGGFIVDEENFGK
MITCLPLLAGEGARRKGDIGMRNKNKRLAQYATELRRNMTDAEYALWYHLRNKLFCGIRFNRQVIIGHYIVDFCSRKLKLVIELDGIQHVEQEQYDLERTKFLTAQGYKVIRFWNDEVLKNIDNVLEAIYVEIEHLSPPHFGSSPHKWVEPRLEVLK
MITRIPRSSFSANINNTAQTNEHQTLSELFYKELEDKFSGKELATPLLKSFSENCRQNGRHIFSNKDFVIKFSTSVLQADKKEITIINKNENTTLTQTIAPIFEKYLMEILPQRSDTLDKQELNLKSDRKEKEFPRIKLNGQCYFPGRPQNRIVCRHIAAQYINDIYQNVDYKPHQDDYSSAEKFLTHFNKKCKNQTLALVSSRPEGRCVAACGDFGLVMKAYFDKMESNGISVMAAILLVDNHALTVRLRIKNTTEGCTHYVVSVYDPNVTNDKIRIMSESKENIKHYSLMDFMNVDYSLLKWSNDHVINQSVAIIPALPKEQLLMLKGSVDEITPPLSPATMNLLMAIGQNHQLTQLMIQLQKMPELHRTEMLTAYNSINLPGLYLAINYGNADIVETIFNSLSETGYEGLLSKKNLMHILEAKDKNGFSGLFLAISRKDKNVVTSILNALPKLAATHHLDNEQVYKFLSAKNRTSSHVLYHVMANGDADMLKIVLNALPLLIRTCHLTKEQVLDLLKAKDFYGCPGLYLAMQNGHSDIVKVILEALPSLAQEINISASDIVDLLTAKSLARDTGLFMAMQRGHMNVINTIFNALPTLFNTFKFDKKNMKPLLLANNSNEYPGLFSAIQHKQQNVVETVYLALSDHARLFGFTAEDIMDFWQHKAPQKYSAFELAFEFGHRVIAELILNTLNKMAESFGFTDNPRYIAEKNYMEALLKKASPHTVRAAALEHHHHHH
MITVKNIEGSETYVLRQKILRPNQTLADCKYPSDYETDTFHLGAFINDQLISIASFSKEMHPDLQAGMHYRLRGMATLPEFRNNHAGSSLIQKAEQILQERQANMLWCNGRITVADYYKRLGFQEHGEIFEIEPIGLHKVLYKRI
MIVPGGFPAPVTGSAVAASPPLPTVRLLSLDAHGRVLDWINWQDAACLYARDAVSWTLGEPCMQIHGGVSRLTGERSVLELHPIIAARGHARSRALDPTPTLTNTALFARDSQLCMYCGQHFSRPHLTRDHVMPVSKGGRDSWENVVTACFQCNSRKANRTPQQAHMPLLAVPYRPSWIEHLILSNRNILSDQMAFLRAQLPKRSKLSLLEHHHHHH
MIVSFMENYSDALNDIFQSLADPTRRAVILRLGGGEASIGTLAEPFAMALPSFMKHIRQLEEAGLIVTRKQGRVRFCSLEKQRFSMLDGWLSQQRAVWEGRTDRLEQFVMAQQDRMSSKGENDQ
MIVTTAGRTNKEMTDYANEVAAELNASFVKRNDIPVHKLHEQYEQDVLVVGKNRLAIYPKGTEESFFFHPNSAMFRVKRLMRGEHDPFVQATQLERGMTVLDCTLGMASDSIVASYVVGESGKVTGLEGNEYMAYIMENGLKTWSSSVSEIDEAMQRIQVKQTEHFSFLAQCEDNSYDVVYLDPMFEETVIESDGIKGLKHFALYHDITDETIAEAKRVARKRVVLKDHFRSSRFEKHNFYVYKRKSAKFHFGVIDPC
MKAITLLSSGLDSVAALAIAAESLEIEMAITFDYGQRAGQREMEYSEKVCEHFGIEQRIIKLDWLGEITHTSLVNRDEEVPSLSFEDIDENSPSMITEYSAKAVWVPNRNGVMLNIAGSFAESRGCDYIVVGFNGEEAGTFPDNSRDYIQAVDNAFSYSTQNGVKVLAPLAEMGKTEIVKKALEAEAPLEYSWSCYHGGEIPCGKCESCVRRARAFKNIGIKDPLLERLGI

Soluble on expression in E. coli, soluble:
MITFQEFVNYWFEAYAKIAVKQSTQKRYRELLIPAIKAIGTKPLSDIKPLDIQKIYMNLTGKLSDSTILKLHRLLHEIFKHAVMWEYISDNPVKKVLPPSPELEHHHHHH
MIVLPRRLSDEVADRVRALIDEKNLEAGMKLPAERQLAMQLGVSRNSLREALAKLVSEGVLLSRRGGGTFIRWRHDTWSEQNIVQPLKTLMADDPDYSFDILEARYAIEASTAWHAAMRATPGDKEKIQLCFEATLSEDPDIASQADVRFHLAIAEASHNIVLLQTMRGFFDVLQSSVKHSRQRMYLVPPVFSQLTEQHQAVIDAIFAGDADGARKAMMAHLSFVHTTMKRFDEDQARHARITRLPGEHNEHSREKNA
MIVNRNPFEQLPSLAINPEDFDVLYSAETFRTRLLDAISKATSRIYLVALYLEDDEAGREILTALYEAKQRNPGLDINICVDWHRAQRGLIGAETSEGNSALYKAFADQYQHAIPVYGIPVRGREVFGVLHLKGFVVDDTVIYSGASLNNVYLQYHGRYRFDRYHVIKHKSLADTMVNFVQNEMIAHPAVNDLADRDKPETKEIKSAIRQLRSSLAQANYQFAHEAAAEDKVKITPLVGLGKRRNLLNQQIVKLLAAAQNEIFICTPYFNFPKSIHREVKRAMKRGVKVTIVVGDKTANDFYISPEEDFKTIGGLPYLYEVNLRRFAKANEANIAARKLSVHLWKHENNSFHLKGIWVDKRYMLLTGNNLNPRAWSLDLENGLLIQDDYANLTHKFEDEVARILEHTQLICTYKQLEKVEDYPLAVQKLVRKITRLKADGVLKRILLEHHHHHH
MIVQKELVAIYDYEVPVPEDPFSFRLEIHKCSELFTGSVYRLERFRLRPTFHQRDREDADPLINDALIYIRDECIDERKLRGESPETVIAIFNRELQNIFNQEIE
MIYEFCAENVTLLEKAMQAGARRIELCDNLAVGGTTPSYGVTKAAVELAANYDTTIMTMIRPRGGDFVYNDLEIAIMLEDIRLTAQAGSQGVVFGALTADKKLDKPNLEKLIAASKGMEIVFHMAFDELSDEDQAEAIDWLSQAGVTRILTRAGVSGDSLEKRFVHYHRILEYAKGKIEILPGGGIDLENRQTFIDQVGVTQLHGTKVVFLEHHHHHH
